Measurements as given in US20120093921A1, “IMMUNOGENIC COMPOSITIONS HAVING LOW SODIUM CHLORIDE CONCENTRATION” (GLAXOSMITHKLINE BIOLOGICALS S.A., priority 2009, published 2012).

Tests used:
[1] = Salting out / precipitation of antigen on reconstitution in adjuvant buffer (visual); format: physicochemical
Method: Accordingly, in one embodiment the antigen or antigenic preparation is any antigen which precipitates, coagulates or aggregates after being dissolved in a solution comprising a concentration of sodium chloride (NaCl) or wherein the ionic strength of the solution is greater than 5 mM, 10 mM, 15 mM, 20 mM, 30 mM, 40 mM, 50 mM, 60 mM, 70 mM, 80 mM, 90 mM or 100 mM. The person skilled in the art can determine whether an antigen meets this definition by dissolving and/or mixing an antigen in such a solution. […] An antigen which precipitates, coagulates or aggregates after being dissolved in a solution comprising a concentration of sodium chloride of 100 mM is one which, after 24 hours or less, can be seen to be precipitating by the cloudiness of the solution. In addition, aggregation that is not detectable visually may be observed using methods known to the skilled person which include, but are not limited to SEC-HPLC.
The resulting lyophilsation cake was reconstituted with 625 μl of aqueous adjuvant composition prepared as in Example 2 comprising 150 mM NaCl. The lyophilsation cake contained a 1.25 fold excess of antigen dose to have the right antigen/adjuvant ratio after reconstitution with a final composition of 16 mM Tris, 4 mM borate, 4% sucrose, 0.24% Poloxamer 188, 840 μg/ml CpG and 1000 μg/ml PRAME.
The resulting lyophilsation cake was reconstituted with 625 μl of ASA buffers (150 mM NaCl and sorbitol).
1. PRAME antigen reconstituted in ASA 150 mM NaCl buffer. 2. PRAME antigen reconstituted in ASA sorbitol buffer. 3. NYESO-1 antigen reconstituted in ASA 150 mM NaCl buffer. 4. NYESO-1 antigen reconstituted in ASA sorbitol buffer.
FIG. 4 is a photographic comparison between PRAME and NYESO-1 reconstituted in ASA (150 mM NaCl) and ASA (sorbitol). […] Similarly, NY-ESO reconstituted in ASA (150 mM NaCl) appears cloudy compared to NY-ESO antigen reconstituted in ASA (sorbitol).

[2] = tested on: chicken Red Blood cells (RBC); assay: QS21 lytic activity, haemolysis assay (limit test); format: cell-based; conditions: example curve; OD of 0.12
Method: QS21 is known to lyse red blood cells (RBC).
QS21 lytic activity was measured by a haemolysis assay using chicken Red Blood cells (RBC). RBC were centrifuged at 550 g at 4° C. Supernatant was discarded. The pellet was carefully resuspended in PBS buffer to reach the initial volume and the same operation was repeated until supernatant was no longer red (generally 3 times). The pellet was stored at 4° C. for 3 to 4 days maximum if not used directly (and washed again the day it is used) or was diluted around 10 times in buffer if used the same day.
A QS21 dose range curve was prepared in ASA buffer (in salt or in sorbitol buffer following the ASA sample tested) extemporaneously and the adjuvant samples (containing a 50 μg or 90 μg equivalent of QS21 meaning the equivalent of 500 μl or 900 μl ASA) were prepared. Final volume was adjusted to 900 μl in standards and samples with adequate buffer (containing or not sorbitol as a function of the buffer of the sample tested). Due to its opalescence, ASA interferes in optical density (OD). […] Optical density at 540 nm was measured after centrifugation. […]
1. Limit of detection (LOD) was defined as the lowest concentration of QS21 leading to an OD: • Higher than the base level (OD>0.1) • Around three times higher than OD's buffer (the “o μg” QS21) • In the ascendant part of the curve • Determined for each test. […]

Row | Substance | appearance after reconstitution ([1]; lyophilised with CpG, reconstituted in ASA (150 mM NaCl), compared to ASA (sorbitol), FIG. 4) | salting out in adjuvant composition ([1]; salt concentration reduced to 5 mM and sorbitol included (ASA sorbitol buffer), FIG. 4) | concentration of sodium chloride at which the antigens aggregate and precipitate ([1]; salting out, as low as) [µM] | Limit of Detection (lowest concentration of QS21 leading to OD above base level) [2] [µg]
1 | PRAME: tumour protein antigen, described in U.S. Pat. No. 5,830,753; co-lyophilised with CpG 2006 in the examples | cloudy | prevents “salting out” | 150000 | –
2 | QS21 | – | – | – | 0.9
